“Also recorded” adds a separate entry of the source. Ends that are not written are not given here. * marks the point of attachment. Biotin = O=C1N[C@H]2[C@H](CS[C@H]2CCCCC(=O)*)N1

In test [1] the target is T1, APC/C^Cdc20 (Saccharomyces cerevisiae, UniProt P16522+P53886).
T1 construct: constructed within full-length Cdc20 by site-directed mutagenesis for analysis in vitro in the APC/C^Cdc20 assay; The APC/C was purified for enzyme assays from 1 mL of TAP-tagged Cdc16 yeast extract (SCSY51); made in house; host or cells: Cdc20: in vitro transcription/translation in rabbit reticulocyte lysate, used unpurified; APC/C: S. cerevisiae strain SCSY51 (Cdc16-TAP) extract, captured on IgG magnetic beads
Description: biochemical. Type of test: biochemical. The note with it: for inhibition of APC/C^Cdc20 activity (in words): 220 μM peptide, time course 0-60 minutes, vs buffer only, n = 3. The method in brief: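 Bead-bound TAP-Cdc16 yeast APC/C was mixed with IVT-made Cdc20 or Cdh1, pre-incubated 1 h at rt with checkpoint proteins or inhibitor peptides, plus pre-charged E1/E2/ATP/ubiquitin and ^35S-Pds1 in 20 mM HEPES pH 8.0, 100 mM NaCl, 1 mM MgCl2. Time points were stopped in SDS buffer and resolved by SDS-PAGE.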

For test [2], the system named is APC/C - co-factor Cdh1 interaction. Description: Co-factor Cdh1 binding to APC/C (35S-Cdh1, APC/C on IgG beads). Also on record: species or system Saccharomyces cerevisiae. Particulars: 220 μM peptide, 1 hour, n = 3, vs buffer only. Here is the method:
(§1) One potential mechanism by which Cdc20-derived peptides and Tyc1 inhibit APC/C may be by blocking and/or disrupting the association between the co-factors Cdc20 and Cdh1 and the APC/C holo-enzyme. To test this hypothesis we produced radio-labeled full-length Cdc20 and Cdh1 co-factors by IVT/T and then incubated them with 220 μM Tyc1, DQ36 or PQ65 and APC/C that had been isolated from mitotic yeast extracts on IgG beads. Unbound peptide was washed away, and the amount of the remaining APC/C bound Cdc20 or Cdh1 was quantified. […] These observations indicate that Tyc1 and Mad2-binding motif peptides inhibit APC/C via a similar mechanism, leading to the disruption of the co-factor-APC/C interaction. This similar mechanism of action predicts that co-ever expression of Tyc1 and a Mad2-binding motif peptide in vivo would likely increase a cell’s sensitivity to microtubule poison.
(§2) Fig 14 Mad2-binding motif peptides and Tyc1 disrupt co-factor binding to APC/C and display an additive phenotype for microtubule poison sensitivity when co-ever expressed. A) ^35S-Methionine radio-labeled full-length Cdc20 or Cdh1 were made by IVT/T and pre-incubated with buffer only as a control, or Tyc1, DQ36 or PQ65 at a final concentration of 220 μM. […] The amount of APC/C-bound co-factor was measured by phosphor-imaging (n = 3). […]

For test [3], the system named is APC/C - co-factor Cdc20 interaction. As to the kind of experiment: Co-factor Cdc20 binding to APC/C (35S-Cdc20, APC/C on IgG beads). Further details: species or system Saccharomyces cerevisiae. Particulars: 220 μM peptide, 1 hour, n = 3, vs buffer only. Here is the method: as §1, §2

As for “DQ36-mut1: DQ36-mut1 where all 5 RILQY residues were changed to alanine AAAAA (Biotin-DMNKAAAAAMPEPPKCSSLRQKSYIMKKRTHYSYQQ)”, the “inhibition of APC/C^Cdc20 activity (in words)” value in test [1] (35S-Pds1 substrate) was “The RILQY residues of the yeast KILR-motif were observed to be essential for full inhibition”.

B1: PQ65: 65 amino acid residue peptide called PQ65 (Cdc20 169–232) (peptide, UniProt P26309 169-232, looked up, fragment)
chain: PPNASPISHLRAQTKIVFKQNVAEACGLDMNKRILQYMPEPPKCSSLRQKSYIMKKRTHYSYQQ
On to B1, for which the “amount of APC/C bound co-factor Cdh1 (in words)” value in test [2] was “caused a significant decrease in the amount of APC/C bound co-factor Cdc20 and Cdh1”. Besides, the “inhibition of APC/C^Cdc20 activity (in words)” value in test [1] (35S-Pds1 substrate) is “sufficient to inhibit APC/C^Cdc20 activity; also recorded: A significant level of APC/C^Cdc20 inhibition was observed”. In addition, in test [1] (discussion/conclusion statement), the “overall APC/C inhibition (in words)” value is listed as “displayed the highest level of APC/C inhibition in vitro”. Further, in test [1] (peptide titration dilution series, 35S-Pds1 substrate, estimated/approximate, read-out: IC50), the IC50 (usually the concentration that inhibits the measured activity by half) was < 50 µM. The “amount of APC/C bound co-factor Cdc20 (in words)” value in test [3] was “caused a significant decrease in the amount of APC/C bound co-factor Cdc20 and Cdh1”.

The values are drawn from PMC5993284, “Peptide inhibitors of the anaphase promoting-complex that cause sensitivity to microtubule poison” (PLoS ONE, 2018).
